Experiment [1] addresses T1, Recombinant human EGFR protein (ACRO Biosystems, EGR-H5222) (human, UniProt P00533 25-645).
T1 construct: Bought protein
As to the kind of experiment: ELISA, EGFR coated on the plate.

The target of experiment [2] is T2, recombinant human FcγRI protein (ACRO Biosystems, Cat. FCA-H52H1) (human, UniProt P12314 16-288, limits assumed).
T2 construct: Captured on anti-His (HIS1K) biosensors, so it carries a His tag; also called FcγRI receptor
As to the kind of experiment: BLI (Octet Red 96), FcγRI on HIS1K sensors.

T2 sequence (P12314 16-288 limits assumed): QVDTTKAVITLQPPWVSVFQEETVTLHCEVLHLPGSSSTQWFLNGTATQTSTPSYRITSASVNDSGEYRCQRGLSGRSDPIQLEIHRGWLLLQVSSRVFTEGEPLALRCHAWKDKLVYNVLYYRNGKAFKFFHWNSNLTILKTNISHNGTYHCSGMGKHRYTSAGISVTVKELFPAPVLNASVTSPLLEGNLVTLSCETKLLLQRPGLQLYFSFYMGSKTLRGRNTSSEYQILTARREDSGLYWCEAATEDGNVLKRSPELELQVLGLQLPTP

B1: Fab-Fc/Fab-Fc bispecific antibody (zalutumumab Fab x pertuzumab Fab), KIH combination (K0/H0) (bispecific antibody, human IgG1, kappa)
heavy 1: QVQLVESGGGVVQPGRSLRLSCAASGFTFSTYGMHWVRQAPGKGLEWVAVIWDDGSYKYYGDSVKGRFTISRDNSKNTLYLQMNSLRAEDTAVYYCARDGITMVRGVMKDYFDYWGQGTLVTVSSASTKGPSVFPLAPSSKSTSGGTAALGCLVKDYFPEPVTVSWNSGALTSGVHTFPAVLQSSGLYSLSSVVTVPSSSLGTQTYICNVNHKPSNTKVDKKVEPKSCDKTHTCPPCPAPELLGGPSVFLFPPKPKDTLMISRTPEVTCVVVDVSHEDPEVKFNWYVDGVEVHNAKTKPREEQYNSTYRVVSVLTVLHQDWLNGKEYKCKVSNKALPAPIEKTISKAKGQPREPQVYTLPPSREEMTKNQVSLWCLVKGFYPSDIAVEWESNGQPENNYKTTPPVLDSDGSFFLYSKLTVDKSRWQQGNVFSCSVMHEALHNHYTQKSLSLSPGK
light 1: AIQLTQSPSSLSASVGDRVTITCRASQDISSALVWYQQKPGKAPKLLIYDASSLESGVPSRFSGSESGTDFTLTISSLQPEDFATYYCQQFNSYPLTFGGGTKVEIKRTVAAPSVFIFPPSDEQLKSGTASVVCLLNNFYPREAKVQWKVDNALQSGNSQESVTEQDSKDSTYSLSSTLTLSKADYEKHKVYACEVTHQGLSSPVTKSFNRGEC
heavy 2: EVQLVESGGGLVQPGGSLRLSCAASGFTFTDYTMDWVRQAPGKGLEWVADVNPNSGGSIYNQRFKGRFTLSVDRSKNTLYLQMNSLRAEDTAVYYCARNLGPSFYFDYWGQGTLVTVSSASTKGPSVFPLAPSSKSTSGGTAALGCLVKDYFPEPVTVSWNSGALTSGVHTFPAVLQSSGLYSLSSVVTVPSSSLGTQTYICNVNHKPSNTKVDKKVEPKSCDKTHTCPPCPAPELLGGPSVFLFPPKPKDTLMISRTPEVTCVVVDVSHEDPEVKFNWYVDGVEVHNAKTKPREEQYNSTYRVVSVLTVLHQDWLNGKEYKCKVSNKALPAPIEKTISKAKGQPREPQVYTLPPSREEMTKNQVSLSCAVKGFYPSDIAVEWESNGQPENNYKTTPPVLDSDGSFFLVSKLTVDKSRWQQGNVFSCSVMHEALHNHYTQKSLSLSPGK
light 2: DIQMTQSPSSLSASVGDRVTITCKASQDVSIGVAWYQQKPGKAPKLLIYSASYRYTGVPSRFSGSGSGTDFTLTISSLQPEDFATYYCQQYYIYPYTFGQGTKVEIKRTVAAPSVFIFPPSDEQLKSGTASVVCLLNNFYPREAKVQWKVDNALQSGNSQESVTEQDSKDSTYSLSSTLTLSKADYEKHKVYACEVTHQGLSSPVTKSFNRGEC
notes: Human IgG1 Fc (hinge, CH2, CH3); the exact junction between VH-CH1 and Fc (EU 221-447) is not spelled out; also called KIH control
B1: the binding result in experiment [1] and in experiment [2] was “binds” throughout.

B2: Fab-Fc/Fab-Fc bispecific antibody (zalutumumab Fab x pertuzumab Fab), M2 mutant combination (K0/H8) (bispecific antibody, human IgG1, kappa)
heavy 1: not shown
light 1: not shown
heavy 2: EVQLVESGGGLVQPGGSLRLSCAASGFTFTDYTMDWVRQAPGKGLEWVADVNPNSGGSIYNQRFKGRFTLSVDRSKNTLYLQMNSLRAEDTAVYYCARNLGPSFYFDYWGQGTLVTVSSASTKGPSVFPLAPSSKSTSGGTAALGCLVKDYFPEPVTVSWNSGALTSGVHTFPAVLQSSGLYSLSSVVTVPSSSLGTQTYICNVNHKPSNTKVDKKVEPKSCDKTHTCPPCPAPELLGGPSVFLFPPKPKDTLMISRTPEVTCVVVDVSHEDPEVKFNWYVDGVEVHNAKTKPREEQYNSTYRVVSVLTVLHQDWLNGKEYKCKVSNKALPAPIEKTISKAKGQPREPQVYTYPPSREEMTKNQVSLSCAVKGFYPSDIAVEWESNGQPENNYKTTPPVLDSDGSFFLVSKLTVDKSRWQQGNVFSCSVMHEALHNHYTQKSLSLSPGK
light 2: not shown
notes: Human IgG1 Fc; Junction between VH-CH1 and Fc not spelled out; no linker named for this format
As to B2, the binding result in experiment [1] and in experiment [2] was “binds” in each case.

B3: Fab-Fc/Fab-Fc bispecific antibody (zalutumumab Fab x pertuzumab Fab), M1 mutant combination (K2/H2) (bispecific antibody, human IgG1, kappa)
heavy 1: not shown
light 1: not shown
heavy 2: EVQLVESGGGLVQPGGSLRLSCAASGFTFTDYTMDWVRQAPGKGLEWVADVNPNSGGSIYNQRFKGRFTLSVDRSKNTLYLQMNSLRAEDTAVYYCARNLGPSFYFDYWGQGTLVTVSSASTKGPSVFPLAPSSKSTSGGTAALGCLVKDYFPEPVTVSWNSGALTSGVHTFPAVLQSSGLYSLSSVVTVPSSSLGTQTYICNVNHKPSNTKVDKKVEPKSCDKTHTCPPCPAPELLGGPSVFLFPPKPKDTLMISRTPEVTCVVVDVSHEDPEVKFNWYVDGVEVHNAKTKPREEQYNSTYRVVSVLTVLHQDWLNGKEYKCKVSNKALPAPIEKTISKAKGQPREPQVYTLPPSREEMTKNQVSLSCAVKGFYPSDIAVEWESNGQPENNYKTTPPVLRSDGSFFLVSKLTVDKSRWQQGNVFSCSVMHEALHNHYTQKSLSLSPGK
light 2: not shown
notes: as for B2
For the molecule B3, the binding result in experiment [1] and in experiment [2] was “binds” throughout.

B4: Fab-Fc/Fab-Fc bispecific antibody (zalutumumab Fab x pertuzumab Fab), M3 mutant combination (K2/H7) (bispecific antibody, human IgG1, kappa)
heavy 1: not shown
light 1: not shown
heavy 2: EVQLVESGGGLVQPGGSLRLSCAASGFTFTDYTMDWVRQAPGKGLEWVADVNPNSGGSIYNQRFKGRFTLSVDRSKNTLYLQMNSLRAEDTAVYYCARNLGPSFYFDYWGQGTLVTVSSASTKGPSVFPLAPSSKSTSGGTAALGCLVKDYFPEPVTVSWNSGALTSGVHTFPAVLQSSGLYSLSSVVTVPSSSLGTQTYICNVNHKPSNTKVDKKVEPKSCDKTHTCPPCPAPELLGGPSVFLFPPKPKDTLMISRTPEVTCVVVDVSHEDPEVKFNWYVDGVEVHNAKTKPREEQYNSTYRVVSVLTVLHQDWLNGKEYKCKVSNKALPAPIEKTISKAKGQPREPQVYTYPPSREEMTKNQVSLSCAVKGFYPSDIAVEWESNGQPENNYKTTPPVLRSDGSFFLVSKLTVDKSRWQQGNVFSCSVMHEALHNHYTQKSLSLSPGK
light 2: not shown
notes: as for B2
For the molecule B4, the binding result in experiment [1] and in experiment [2] was “binds” each time.

The values are drawn from EP4803537A1 (PHRONTLINE BIOPHARMA (SUZHOU) CO., LTD, dated 2026).
